In data set [1] the test system is T1, rBDD FVIII (recombinant B-domain deleted FVIII).
T1 sequence: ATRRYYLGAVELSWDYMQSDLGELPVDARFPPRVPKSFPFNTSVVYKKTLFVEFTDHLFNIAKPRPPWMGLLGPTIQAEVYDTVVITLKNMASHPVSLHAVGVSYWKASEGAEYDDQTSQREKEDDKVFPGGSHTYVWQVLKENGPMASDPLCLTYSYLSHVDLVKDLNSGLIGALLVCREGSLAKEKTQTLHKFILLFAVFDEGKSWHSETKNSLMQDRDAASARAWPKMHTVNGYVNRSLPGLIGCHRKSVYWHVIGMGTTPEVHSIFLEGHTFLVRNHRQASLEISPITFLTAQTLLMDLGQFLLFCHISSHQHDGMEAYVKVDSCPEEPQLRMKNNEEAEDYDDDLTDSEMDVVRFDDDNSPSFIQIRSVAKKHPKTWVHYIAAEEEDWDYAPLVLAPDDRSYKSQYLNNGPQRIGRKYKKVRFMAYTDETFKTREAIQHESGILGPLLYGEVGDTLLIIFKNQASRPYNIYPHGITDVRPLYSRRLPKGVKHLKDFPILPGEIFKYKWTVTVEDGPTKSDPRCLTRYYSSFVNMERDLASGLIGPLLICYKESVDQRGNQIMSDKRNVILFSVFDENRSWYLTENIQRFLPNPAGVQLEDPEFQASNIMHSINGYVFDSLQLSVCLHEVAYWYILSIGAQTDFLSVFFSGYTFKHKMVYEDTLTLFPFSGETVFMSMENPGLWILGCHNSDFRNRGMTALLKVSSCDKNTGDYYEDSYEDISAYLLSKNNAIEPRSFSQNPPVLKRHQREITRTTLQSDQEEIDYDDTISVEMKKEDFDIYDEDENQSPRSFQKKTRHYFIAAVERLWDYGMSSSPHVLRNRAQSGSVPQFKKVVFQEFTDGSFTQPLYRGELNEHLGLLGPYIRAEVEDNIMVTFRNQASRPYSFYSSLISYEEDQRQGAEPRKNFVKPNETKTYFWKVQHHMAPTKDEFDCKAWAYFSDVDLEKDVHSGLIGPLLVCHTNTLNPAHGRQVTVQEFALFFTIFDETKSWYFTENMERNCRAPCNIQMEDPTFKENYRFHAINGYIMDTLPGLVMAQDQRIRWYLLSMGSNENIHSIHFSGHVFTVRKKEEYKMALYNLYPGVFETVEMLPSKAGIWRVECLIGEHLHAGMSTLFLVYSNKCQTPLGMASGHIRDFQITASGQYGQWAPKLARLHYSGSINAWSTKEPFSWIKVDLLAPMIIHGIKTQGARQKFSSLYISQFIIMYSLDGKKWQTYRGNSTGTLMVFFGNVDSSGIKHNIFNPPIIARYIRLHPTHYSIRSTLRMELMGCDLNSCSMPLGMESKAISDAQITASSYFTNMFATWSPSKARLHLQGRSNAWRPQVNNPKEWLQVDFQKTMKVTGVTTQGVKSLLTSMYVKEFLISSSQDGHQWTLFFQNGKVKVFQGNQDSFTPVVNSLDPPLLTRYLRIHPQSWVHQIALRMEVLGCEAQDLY

Data set [2] concerns the target single-chain human FcRn (human) (UniProt P55899). Put plainly: SPR (Biacore T100), steady state, pH 6.0; single-chain FcRn amine-coupled to CM5 chip, analyte at 0.0625-2000 nM. (Surface plasmon resonance follows binding to a sensor surface in real time, without labels.)
Data set [3] addresses single-chain canine FcRn (canine). Described as above.
Data set [4] addresses single-chain murine FcRn (mouse) (UniProt Q61559). The data set is described as above.
Data set [5] addresses T2, human von Willebrand factor (human, UniProt P04275 764-2813).
T2 construct: also called hvWf; vWF
Put plainly: SPR (BIAcore); FVIII protein as analyte, hvWf as ligand; N=5. On the procedure:
(§1) Kinetic rate parameters of Kₐ (on-rate) and Kd (off-rate), and the affinity KD (Kd/Kₐ), were determined for each FVIII interaction under identical conditions.

In data set [6] the target is T2, human von Willebrand factor. Put plainly: SPR (BIAcore); FVIII protein as analyte, hvWf as ligand; N=5; KD = off-rate/on-rate. The method, then: as §1

Broadly, the EC50 is the concentration needed to bring the measured effect to its halfway point. A low value points to a more potent agent. As a reminder, the koff is the first-order rate constant of dissociation. A higher koff goes with fast dissociation. Usually kon stands for the rate constant with which the complex forms. Read a low kon as slow association. The term Kd denotes the concentration at which binding is half-saturated.

Sequence of single-chain human FcRn (human) (P55899 24-297 limits assumed, form in doubt, chain 1 of 2): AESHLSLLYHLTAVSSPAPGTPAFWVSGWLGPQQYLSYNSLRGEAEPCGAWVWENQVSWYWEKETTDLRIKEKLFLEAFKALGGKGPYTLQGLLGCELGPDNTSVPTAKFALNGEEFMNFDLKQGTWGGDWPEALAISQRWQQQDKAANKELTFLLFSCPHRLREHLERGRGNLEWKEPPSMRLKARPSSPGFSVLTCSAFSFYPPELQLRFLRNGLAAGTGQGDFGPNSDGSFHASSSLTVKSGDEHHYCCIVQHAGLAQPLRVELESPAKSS
Sequence of single-chain human FcRn (human) (chain, as listed by the source limits assumed, form in doubt, chain 2 of 2): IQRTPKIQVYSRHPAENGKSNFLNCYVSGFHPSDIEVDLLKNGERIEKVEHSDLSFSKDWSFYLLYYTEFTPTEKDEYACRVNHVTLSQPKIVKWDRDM
Sequence of single-chain canine FcRn (canine) (chain, as listed by the source, form in doubt): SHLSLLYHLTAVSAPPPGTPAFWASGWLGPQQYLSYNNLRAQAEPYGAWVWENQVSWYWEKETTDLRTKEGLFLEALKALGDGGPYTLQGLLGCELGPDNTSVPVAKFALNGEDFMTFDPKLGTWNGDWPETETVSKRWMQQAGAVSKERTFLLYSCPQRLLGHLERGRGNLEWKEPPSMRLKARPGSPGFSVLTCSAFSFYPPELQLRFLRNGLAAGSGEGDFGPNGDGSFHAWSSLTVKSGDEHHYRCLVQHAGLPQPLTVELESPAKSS
Sequence of single-chain murine FcRn (mouse) (Q61559 22-297 limits assumed, form in doubt, chain 1 of 2): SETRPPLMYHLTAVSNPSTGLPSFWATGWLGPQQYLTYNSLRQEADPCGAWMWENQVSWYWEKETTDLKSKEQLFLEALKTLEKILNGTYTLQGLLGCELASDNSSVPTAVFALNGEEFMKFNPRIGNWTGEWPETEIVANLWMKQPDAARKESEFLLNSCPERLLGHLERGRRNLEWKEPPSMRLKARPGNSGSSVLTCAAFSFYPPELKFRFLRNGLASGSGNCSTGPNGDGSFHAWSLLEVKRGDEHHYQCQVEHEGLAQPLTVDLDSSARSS
Sequence of single-chain murine FcRn (mouse) (chain, as listed by the source limits assumed, form in doubt, chain 2 of 2): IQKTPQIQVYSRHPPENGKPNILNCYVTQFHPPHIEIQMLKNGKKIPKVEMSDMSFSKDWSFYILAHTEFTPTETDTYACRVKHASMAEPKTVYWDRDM

Take activated Factor IX: in data set [1], the Km (nM) (called Kd in the text): FXa generation rate against FIXa concentration, thrombin-activated FVIII protein on 25% PS-75% PC vesicles was found to be 2.5 nM and the Vmax (nM/min): FXa generation rate against FIXa concentration was determined as 4 nM/min.

As for activated protein C, in data set [1], the “normalized FXa generation rate following cleavage by APC (thrombin 30' = 100); shown without a number” value was “'BDD FVIII' is one of the two lighter bars of each group (alike in the scan); both lighter bars: about 8-16 without thrombin, 100 after thrombin 30', not lowered after a further 15' with APC (about 108-111), fallen to about 18-27 after 90' with APC”.

In the case of Human IgG1 (antibody), the EC50 was 558 nM in data set [2], 196 nM in data set [3] and below 22.4 nM in data set [4].

B1: rBDD FVIII (recombinant B-domain deleted FVIII) (other)
chain: T1 sequence
notes: The commercial product is largely processed into heavy and light chains; also called XYNTHA
In data set [5], B1 had a koff of 0.00114 s⁻¹ and a kon of 1.37e+06 M⁻¹ s⁻¹. The molecule further had a dissociation constant Kd in data set [6] of 0.846 nM.

The values are drawn from patent US20140370035A1 (BIOVERATIV THERAPEUTICS, published 2014).
